Test results: paper PMC3634854, “S100A12 Suppresses Pro-inflammatory, but Not Pro-Thrombotic Functions of Serum Amyloid A” (PLoS ONE, 2013)
“And” between values parts separate entries of the source, which are not always exact repeats. Equal entries are not always repeated.

Target: the molecule itself
Test: cross-linking; S100A12 (1 µg) and SAA (1 µg), alone or together, with bis[sulfosuccinimidyl] suberate (BS3, 5 µM) in PBS, in the presence or absence of 1 mM Ca2+, 30 min at RT in the dark; 10% SDS-PAGE under non-reducing conditions, silver stain

B1: Human recombinant S100A12 (natural protein, UniProt P80511 1-92, looked up)
chain: MTKLEEHLEGIVNIFHQYSVRKGHFDTLSKGELKQLLTKELANTIKNIKDKAVIDEIFQGLDANQDEQVDFQEFISLVAIALKAAHYHTHKE
notes: S100A12, human, recombinant
- stoichiometry N: 2 and 4
